Assay results from patent US20260109774A1 (JUNO THERAPEUTICS, published 2026).

B1: BCMA-12 scFv (scFv)
scFv: EVQLVESGGGLVKPGGSLRLSCAASGFTFSDYYMSWIRQAPGKGLEWVSYISSSGSTIYYADSVKGRFTISRDNAKNSLYLQMNSLRAEDTAVYYCAKVDGPPSFDIWGQGTMVTVSSGGGGSGGGGSGGGGSQSALTQPPSVSAAPGQKVTISCSGSRSNIGNNYVSWYQQLPGTAPKLLIYDNAKRPSGIPDRFSGSKSGTSATLDIAGLQTGDEADYYCQVWDSSSDHWVFGGGTKLTVL
B2: BCMA-16 scFv (scFv)
scFv: EVQLVQSGPEVKKPGTSVKVSCKASGFTFTSSAMQWVRQARGQRLEWIGWIVVGSGNTNYAQKFQERVTITRDMSTSTAYMELSSLRSEDTAVYYCAAAPYYDILTGYYLWGQGTLVTVSSGGGGSGGGGSGGGGSQSALTQPPSASGTPGQRVTISCSGSGSNIGSNDVSWYQQIPGTAPKLLIYWNDQRPSGVPDRFSGSKSGTSASLAISGLQSEDEADYYCASWDDSLSGWVFGGGTKLTVL
B3: BCMA-7 scFv (scFv)
scFv: QVQLVQSGGGLVQPGRSLRLSCTASGFTFGDYAMSWFRQAPGKGLEWVGFIRSKAYGGTTEYAASVKGRFTISRDDSKSIAYLQMNSLKTEDTAVYYCAAWSAPTDYWGQGTLVTVSSGGGGSGGGGSGGGGSVIQLTQSPSSLSASVGDRVTITCRASQDIGDYLAWFQQRPGKAPKSLIYVASTLQSGVPSRFSGSGSGTHFTLTINSLQPEDFATYYCQQYHSHPWTFGPGTKVDIK
B4: BCMA-6 scFv (scFv)
scFv: QVQLVQSGGGLVQPGRSLRLSCTASGFTFGDYAMSWFRQAPGKGLEWVGFIRSKAYGGTTEYAASVKGRFTISRDDSKSIAYLQMNSLKTEDTAVYYCAAWSAPTDYWGQGTLVTVSSGGGGSGGGGSGGGGSDIVMTQSPSSLSVSVGERVTITCRASQSISNSLAWYKQRPGEAPKLLIHAASNVEDGVPSRFSGRGSGTVFTLAISNVQPEDFATYYCQQSHMYPPTFGGGTKVEIK
B5: BCMA-18 scFv (scFv)
scFv: EVQLLESGGGLVQPGGSLRLSCAASGFTFSSYWMSWHRQAPGKGPEWVAHINQDGSEKYYVDSVKGRFTISRDNAESSLYLQMNSLRAEDTAVYYCARWLAVTNWGQGTLVTVSSGGGGSGGGGSGGGGSQSVLTQPPSASGTPGQRVTISCSGSGSNIGSNDVSWYQQIPGTAPKLLIYWNDQRPSGVPDRFSGSKSGTSASLAISGLRSEDEADYYCAAWDDSLNGWVFGGGTKLTVL
B6: BCMA-4 scFv (scFv)
scFv: QVQLVQSGGGLVQPGRSLRLSCTASGFTFGDYAMSWFRQAPGKGLEWVGFIRSKAYGGTTEYAASVKGRFTISRDDSKSIAYLQMNSLKTEDTAVYYCAAWSAPTDYWGQGTLVTVSSGGGGSGGGGSGGGGSAIRMTQSPSSLSASLGDRVTITCRASQDIRNSLAWYQQRPGKAPKLLLSAASRLESGVPSRFSGTTSGAEYALSISSLQPEDVASYFCQQYYSLPLSFGGGTKVEIK
B7: BCMA-22 scFv (scFv)
scFv: EVQLVESGGGLVKPGGSLRLSCAASGFTFSDYYMSWIRQAPGKGLEWVSYISSSGSTIYYADSVKGRFTISRDNAKNSLYLQMNSLRAEDTAVYYCAKVDGDYTEDYWGQGTLVTVSSGGGGSGGGGSGGGGSQSALTQPASVSGSPGQSITISCTGSSSDVGKYNLVSWYQQPPGKAPKLIIYDVNKRPSGVSNRFSGSKSGNTATLTISGLQGDDEADYYCCSYGGSRSYVFGTGTKVTVL
B8: BCMA-40 scFv (scFv)
scFv: EVQLVESGGGLVKPGGSLRLSCAASGFTFSDYYMSWIRQAPGKGLEWVSYISSSGSTIYYADSVKGRFTISRDNAKNSLYLQMNSLRAEDTAVYYCAKVDGDYTEDYWGQGTLVTVSSGGGGSGGGGSGGGGSQSALTQPASVSGSPGQSITISCTGSSSDVSKYNLVSWYQQPPGKAPKLIIYDVNKRPSGVSNRFSGSKSGNTATLTISGLQGDDEADYYCCSYGGSRSYVFGTGTKLTVL
B9: BCMA-8 scFv (scFv)
scFv: QVQLVQSGGGLVQPGRSLRLSCTASGFTFGDYAMSWFRQAPGKGLEWVGFIRSKAYGGTTEYAASVKGRFTISRDDSKSIAYLQMNSLKTEDTAVYYCAAWSAPTDYWGQGTLVTVSSGGGGSGGGGSGGGGSDIVMTQSPDSLAVSLGERATINCKSSQSVLYSSNNKNYLAWYQQKPGQPPKLLIYWASTRESGVPDRFSGSGSGTDFTLTISSLQAEDVAVYYCQQYYSTPYTFGQGTKLEIK
B10: BCMA-3 scFv (scFv)
scFv: QVQLVQSGGGLVQPGRSLRLSCTASGFTFGDYAMSWFRQAPGKGLEWVGFIRSKAYGGTTEYAASVKGRFTISRDDSKSIAYLQMNSLKTEDTAVYYCAAWSAPTDYWGQGTLVTVSSGGGGSGGGGSGGGGSDIVMTQSPDSLVVSLGERATINCKSSQSVLHSSNNKNYLAWYQQKPGQPPKLLIYWASTRESGVPDRFSGSGSGTDFTLTISSLQAEDVAVYYCQQYYTTPLTFGGGTKVEIK
B11: BCMA-46 scFv (scFv)
scFv: QVQLVQSGGGLVQPGRSLRLSCTASGFTFGDYAMSWFRQAPGKGLEWVGFIRSKAYGGTTEYAASVKGRFTISRDDSKSIAYLQMNSLKTEDTAVYYCAAWSAPTDYWGQGTLVTVSSGGGGSGGGGSGGGGSDIVMTQSPDSLVVSLGERATINCKSSQSVLHSSNNKNYLAWYQQKPGQPPKLLIYWASTRESGVPDRFSGSGSGTDFTLTISSLQAEDVAVYYCQQYYTTPLTFGGGTKVEIK
B12: BCMA-44 scFv (scFv)
scFv: EVQLVQSGGGLVQPGRSLRLSCTASGFTFGDYAMSWFRQAPGKGLEWVGFIRSKAYGGTTEYAASVKGRFTISRDDSKSIAYLQMNSLKTEDTAVYYCAAWSAPTDYWGQGTLVTVSSGGGGSGGGGSGGGGSDVVMTQSPDSLAVSLGERATINCKSSQNLLYSSNNKNYLAWYQQKPGQPPKLLIYWASTRESGVPDRFSGSGSGTDFTLTISSLQAEDVAVYYCQQYYSSPYTFGQGTKLEIK
B13: BCMA-31 scFv (scFv)
scFv: EVQLVQSGGGLVQPGRSLRLSCTASGFTFGDYAMSWFRQAPGKGLEWVGFIRSKAYGGTTEYAASVKGRFTISRDDSKSIAYLQMNSLKTEDTAVYYCAAWSAPTDYWGQGTLVTVSSGGGGSGGGGSGGGGSDVVMTQSPDSLAVSLGERATISCKSSQSVLNSSNNKNYVAWYKQKPGQPPKLVISWASTRESGVPDRFSGSGSGTDFTLTISSLQAEDVAVYYCQQYYSTPYTFGQGTKLDIK
B14: BCMA-17 scFv (scFv)
scFv: QVQLVQSGGGLVKPGGSLRLSCAASGFTFSDYYMSWIRLAPGKGLEWVSYISSSGSTIYYADSVKGRFTISRDNAKNSLYLQMNSLRAEDTAVYYCAREADSSADYWGQGTLVNVSSGGGGSGGGGSGGGGSQPVLTQPPSVSVAPGKTAMITCGGNNIGFKGVQWYQQKTGQAPVLVVYDDSDRPSGIPERFSGSNSGNTATLTISRVEAGDEADYYCQVWDSASDHWVFGGGTKLTVL
B15: BCMA-33 scFv (scFv)
scFv: QVQLVQSGGGLVKPGGSLRLSCAASGFTFSDYYMSWIRQAPGKGLEWVSYISGSGSTIYYADSVKGRFTISRDNAKNSLYLQMNSLRAEDTAVYYCAREADSSADYWGQGTLVNVSSGGGGSGGGGSGGGGSQPVLTQPPSVSVAPGKTAMITCGGNNIGFKGVQWYQQKTGQAPVLVVYDDSDRPSGIPERFSGSNSGNTATLTISRVEAGDEADYYCQVWDSASDHWVFGGGTKLTVL
B16: BCMA-21 scFv (scFv)
scFv: EVQLVESGGGLVKPGGSLKLSCAASGFTFSDYYMSWIRQAPGKGLEWVSYISSSGSTIYYADSVKGRFTISRDNAKNSLYLQMNSLRAEDTAVYYCAKVDGGYTEDYWGQGTLVTVSSGGGGSGGGGSGGGGSQSVLTQPPSASGTPGQRVTISCSGSGSNIGSNDVSWYQQIPGTAPKLLIYWNDQRPSGVPDRFSGSKSGISASLAISGLRSEDEADYYCAAWDDSLNGYVFGTGTKVTVL
B17: BCMA-2 scFv (scFv)
scFv: EVQLVESGGGLVKPGGSLRLSCAASGFTFSDYYMSWIRQAPGKGLEWVSYISSSGSTIYYADSVKGRFTISRDNAKNSLYLQMNSLRAEDTAVYYCAKVDGPPSSDIWGQGTMVTVSSGGGGSGGGGSGGGGSEIVMTQSPATLSVSPGETATLSCRASQSIKTNLAWYQQKPGQAPRLLIYAASTRATGIPDRFSGSGSGTDFTLTITRLEPEDFAVYYCQQYGSSPTFGRGTKLEIK
B18: BCMA-11 scFv (scFv)
scFv: QVQLVQSGGGLVQPGRSLRLSCAASGFTFDDYAMHWVRRAPGKGLEWVSGISWNSGSIGYADSVKGRFTISRDNAKNSLYLQMNSLRAEDTAVYYCARDLGPDYDPDAFDIWGQGTMVTVSSGGGGSGGGGSGGGGSQLVLTQPPSASGTPGQRVTISCSGSSSNIGSNAVNWYQQLPGTAPEVLIYNSHQRPSGVPDRFSGSKSGTSASLAINGLQSEDEADYYCAAWDDSLRGYVFGTGTKLTVL
B19: BCMA-15 scFv (scFv)
scFv: QVQLLESGGGLVKPGGSLRLSCAASGFTFSSYGMHWVRQAPGKGLEWVAVISYDGSNKYYADSVKGRFTISRDNSKNTLYLQMNSLRAEDTAVYYCAKDQYSSSAQRADFDYWGQGTLVTVSSGGGGSGGGGSGGGGSQSVLTQPPSASGTPGQRVTISCSGSGSNIGSNDVSWYQQIPGTAPKLLIYWNDQRPSGVPDRFSGSKSGTSASLVISGLRSEDEADYYCAAWDDSLSGWVFGGGTKLTVL

Biological target: T1, human B-cell maturation antigen (BCMA) on cells (human, UniProt Q02223 1-184)
T1 construct: Recombinant on HEK293 or K562 cells, or endogenous on cell lines (H929, RPMI 8226, OPM2, MM1S, Daudi); also called hBCMA; huBCMA
T1 chain: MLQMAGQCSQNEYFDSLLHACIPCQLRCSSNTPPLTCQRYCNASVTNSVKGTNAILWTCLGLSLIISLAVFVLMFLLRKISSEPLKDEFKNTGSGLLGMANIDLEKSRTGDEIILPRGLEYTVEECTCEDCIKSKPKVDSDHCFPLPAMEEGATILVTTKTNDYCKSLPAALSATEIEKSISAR
Assay: flow cytometry on BCMA-expressing HEK293 cells vs control cells, crude lysate or bacterial supernatant; clone listed in Table E2
Experimental: Specific binding of resulting scFv clones to BCMA-expressing HEK293 cells, as compared to control cells not expressing BCMA, was assessed by flow cytometry either with in vitro translated crude cell lysate or with bacterially-produced supernatant.

Row | Binder | binding result
1 | B1 | binds
2 | B2 | binds
3 | B3 | binds
4 | B4 | binds
5 | B5 | binds
6 | B6 | binds
7 | B7 | binds
8 | B8 | binds
9 | B9 | binds
10 | B10 | binds
11 | B11 | binds
12 | B12 | binds
13 | B13 | binds
14 | B14 | binds
15 | B15 | binds
16 | B16 | binds
17 | B17 | binds
18 | B18 | binds
19 | B19 | binds
